Biological target: HLA-A11.2 molecules isolated from the cell line BVR (human)
Assay: competition with radiolabeled probe [..], purified HLA-A11.2; IC50 standard / IC50 peptide
Details: not given

Row | Binder | binding ratio to standard
1 | QQLLRREVY (modifications not checked) [… (residues 42-50 of HPV16 protein E6)] | 0.0084

Same assay, conditions: remark: other sources report otherwise

Row | Binder | binding ratio to standard
2 | IVYRDGNPY (modifications not checked) [… (residues 59-67 of HPV16 protein E6)] | 0.47
3 | AMFQDPQER (modifications not checked) [… (residues 7-15 of HPV16 protein E6)] | 0.84

Biological target: T1, HLA-A3.2 molecules isolated from the EBV transformed cell line GM3107 (human)
Assay: not given
Details: not given

Row | Binder | IC50
4 | KVFPYALINK (modifications not checked) [probe peptide … for A3.2] | 30 nM

Same assay, conditions: remark: other sources report otherwise

Row | Binder | binding ratio to standard
5 | KFYSKISEY (modifications not checked) [… (residues 75-83 of HPV16 protein E6)] | 0.01

Biological target: HLA-A24 molecules isolated from the EBV transformed cell line KT3 (human)
Assay: competition with radiolabeled probe [..], purified HLA-A24; IC50 standard / IC50 peptide
Details: not given

Row | Binder | binding ratio to standard
6 | LLRREVYDF (modifications not checked) [… (residues 44-52 of HPV16 protein E6)] | 0.0023
7 | RAHYNIVTF (modifications not checked) [… (residues 49-57 of HPV16 protein E7)] | 0.067
8 | VYDFAFRDL (modifications not checked) [… (residues 49-57 of HPV16 protein E6)] | 0.061
9 | MHQKRTAMF (modifications not checked) [… (residues 1-9 of HPV16 protein E6)] | 0.0049
10 | RFHNIRGRW (modifications not checked) [… (residues 131-139 of HPV16 protein E6)] | 0.1

Biological target: T1, HLA-A3.2 molecules isolated from the …
Assay: competition with radiolabeled probe [..], purified HLA-A3.2; IC50 standard / IC50 peptide
Details: not given

Row | Binder | binding ratio to standard
11 | TTLEQQYNK (modifications not checked) [… (residues 93-101 of HPV16 protein E6)] | 0.078
12 | SLYGTTLEQ (modifications not checked) [… (residues 89-97 of HPV16 protein E6)] | 0.008
13 | QQLLRREVY (modifications not checked) [… (residues 42-50 of HPV16 protein E6)] | 0.0058

Same assay, conditions: remark: other sources report otherwise

Row | Binder | binding ratio to standard
14 | HLDKKQRFH (modifications not checked) [… (residues 125-133 of HPV16 protein E6)] | 0.44
15 | IVYRDGNPY (modifications not checked) [… (residues 59-67 of HPV16 protein E6)] | 3
16 | AMFQDPQER (modifications not checked) [… (residues 7-15 of HPV16 protein E6)] | 0.1

Biological target: HLA-A1 molecules isolated from the EBV transformed cell line Steinlin (human)
Assay: competition with radiolabeled probe [..], purified HLA-A1; IC50 standard / IC50 peptide
Details: not given

Row | Binder | binding ratio to standard
17 | EIDGPAGQA (modifications not checked) [… (residues 37-45 of HPV16 protein E7)] | 0.025
18 | YRDGNPYAV (modifications not checked) [… (residues 61-69 of HPV16 protein E6)] | 0.008
19 | HVDIRTLED (modifications not checked) [… (residues 73-81 of HPV16 protein E7)] | 0.014

Biological target: HLA-A2.1 molecules expressed by 174CEM.T2 cells (human)
Assay: T2 HLA-A2.1 stabilisation, flow cytometry (BB7.2), peptide 200 ug/ml
Details: not given

Row | Binder | FI (Fluorescence Index) | MF (mean fluorescence)
20 | YMLDLQPET (modifications not checked) [… (residues 11-19 of HPV16 protein E7)] | 3.3 | 284
21 | DTLEKLTNT (modifications not checked) [… (residues 88-96 of HPV18 protein E6)] | 0.7 | 238
22 | MLDLQPETT (modifications not checked) [… (residues 12-20 of HPV16 protein E7)] | 2.3 | 218
23 | SLQDIEITC (modifications not checked) [… (residues 24-32 of HPV18 protein E6)] | 0.7 | 244
24 | LTNTGLYNL (modifications not checked) [… (residues 93-101 of HPV18 protein E6)] | 1.5 | 352
25 | FAFKDLFVV (modifications not checked) [… (residues 47-55 of HPV18 protein E6)] | 2.3 | 463
26 | LSFVCPWCA (modifications not checked) [… (residues 94-102 of HPV18 protein E7)] | 0.9 | 262
27 | RLCVQSTHV (modifications not checked) [… (residues 66-74 of HPV16 protein E7)] | 2.8 | 250
28 | TLEDLLMGT (modifications not checked) [… (residues 78-86 of HPV16 protein E7)] | 1.8 | 183
29 | PLCDLLIRC (modifications not checked) [… (residues 102-110 of HPV16 protein E6)] | 2.1 | 205
30 | KISEYRHYC (modifications not checked) [… (residues 79-87 of HPV16 protein E6)] | 2.2 | 212
31 | LFLNTLSFV (modifications not checked) [… (residues 89-97 of HPV18 protein E7)] | 1.6 | 360
32 | TIHDIILEC (modifications not checked) [… (residues 29-37 of HPV16 protein E6)] | 1.8 | 184
33 | IHDIILECV (modifications not checked) [… (residues 30-38 of HPV16 protein E6)] | 1.3 | 151
34 | LCTELQTTI (modifications not checked) [… (residues 22-30 of HPV16 protein E6)] | 0.7 | 114
35 | KTVLELTEV (modifications not checked) [… (residues 36-44 of HPV18 protein E6)] | 2.3 | 468
36 | FQQLFLNTL (modifications not checked) [… (residues 86-94 of HPV18 protein E7)] | 0.8 | 244
37 | QLFLNTLSF (modifications not checked) [… (residues 88-96 of HPV18 protein E7)] | 0.8 | 258
38 | GTLGIVCPI (modifications not checked) [… (residues 85-93 of HPV16 protein E7)] | 2.3 | 216

Same assay, conditions: remark: other sources report otherwise

Row | Binder | FI (Fluorescence Index) | MF (mean fluorescence)
39 | EITCVYCKT (modifications not checked) [… (residues 29-37 of HPV18 protein E6)] | 0.5 | 206
40 | KLPDLCTEL (modifications not checked) [… (residues 13-21 of HPV18 protein E6)] | 2.1 | 439
41 | ELTEVFEFA (modifications not checked) [… (residues 40-48 of HPV18 protein E6)] | 1.1 | 289
42 | QLCTELQTT (modifications not checked) [… (residues 21-29 of HPV16 protein E6)] | 2.2 | 212
43 | CVYCKQQLL (modifications not checked) [… (residues 37-45 of HPV16 protein E6)] | 2 | 195

Reference: patent US7364741
